In patent US9315838B2, “Method to increase algal biomass and enhance its quality for the production of fuel” (priority 2012, dated 2016):
“Also recorded” adds a separate entry of the source.

Tests used:
[1] = test system: Chlamydomonas reinhardtii pgd1 mutant; assay: Thiobarbituric acid reactive substances (TBARS) analysis following N deprivation; conditions: DCMU 2 μM, FIG. 8D
[2] = test system: Chlamydomonas reinhardtii pgd1 mutant; assay: Chlorosis, chlorophyll content and cell viability of N-deprived cultures with DCMU; conditions: DCMU 2 μM added to N-deprived (TAP-N) cultures
[3] = test system: Chlamydomonas reinhardtii; assay: TAG accumulation (ratio of fatty acids in TAG over total fatty acids) after N deprivation with DCMU; assay type: cell-based; conditions: 2 d of N deprivation, FIG. 8E
Experimental: FIG. 8. […] Two representative cultures per line are shown.
Strains and growth conditions.
(§1) Lipid extraction, thin-layer chromatography (TLC) of neutral lipids, transesterification and gas-liquid chromatography were done according to (Moellering and Benning 2010). Briefly, lipids were extracted from cell pellets with methanol, chloroform, 88% formic acid (2:1:0.1 by volume). To the extract 0.5 volume of 1M KCl, 0.2 M H3PO4 was added, mixed and phases were separated by low speed centrifugation. For TAG quantification, lipids were resolved by TLC on Silica G60 plates (EMD chemicals, #5721-7, http://www.emdchemicals.com) developed in petroleum ether-diethyl ether-acetic acid (80:20:1 by volume). Polar lipids were separated on the same plate using chloroform-methanol-acetic acid-H2O (75:13:9:3 by volume) as solvent. To analyze lyso-glycolipids during for the PGD1 assay, acetone-toluene-H2O (91:30:7.5 by volume) was used, instead. Brief exposure to iodine vapor was employed for visualization of lipids. Transesterification of each lipid and separation of fatty acid methyl esters by GLC were as previously described (Rossak et al. 1997). Transesterification was conducted on pellets with a known number of cells to determine the cellular total fatty acid content. Staining with α-naphtol (Benning et al. 1995) was used for the PGD1 assay to detect galactoglycerolipids.

[4] = PGD1 lipase assay on other major membrane lipids; assay type: biochemical, Chlamydomonas
Experimental: (§2) Lipid extraction, thin-layer chromatography (TLC) of neutral lipids, transesterification and gas-liquid chromatography were done according to (Moellering and Benning 2010). Briefly, lipids were extracted from cell pellets with methanol, chloroform, 88% formic acid (2:1:0.1 by volume). To the extract 0.5 volume of 1M KCl, 0.2 M H3PO4 was added, mixed and phases were separated by low speed centrifugation. For TAG quantification, lipids were resolved by TLC on Silica G60 plates (EMD chemicals, #5721-7, http://www.emdchemicals.com) developed in petroleum ether-diethyl ether-acetic acid (80:20:1 by volume). Polar lipids were separated on the same plate using chloroform-methanol-acetic acid-H2O (75:13:9:3 by volume) as solvent. […]
(§3) BL21 (codon+) E. coli strains harboring the empty pMK1006 vector or the pMK1006-PGD1 construct were grown to log phase at 37° C. […] Protein concentration was determined with Bio-Rad Protein Assay Dye Reagent Concentrate (http://www.bio-rad.com) according to the manufacturer's instructions.
(§4) To prepare lipid substrates from Chlamydomonas or E. coli cells, lipids were extracted from 48 hours N-deprived Chlamydomonas cells or IPTG induced E. coli cells expressing cucumber MGDG synthase (Shimojima et al. 1997) and resolved by polar TLC. […] Per assay 10 μg refolded PGD1 protein (quantified as stated above) in 50 μL protein refolding buffer was added. […]

[5] = PGD1 lipase assay on DGDG; assay type: biochemical, Chlamydomonas
Experimental: as §2, §3, §4

[6] = PGD1 lipase assay on MGDG; assay type: biochemical
Experimental: as §1
BL21 (codon+) E. coli strains harboring the empty pMK1006 vector or the pMK1006-PGD1 construct were grown to log phase at 37° C. Isopropyl-β-D-thiogalactopyranoside was added to the final concentration of 0.5 mM to induce protein production. Cells were harvested after 3 hours of induction. To extract proteins, cells were resuspended in lysis buffer (20 mM Tris-HCl, pH 7.9, 10% glycerol, 150 mM NaCl, 1 mM dithiothreitol). The mixture was then frozen in liquid nitrogen and thawed at room temperature for three cycles and sonicated to lyse cells. Lysates were centrifuged at 21,000×g for 15 minutes to obtain inclusion bodies. Inclusion bodies were washed with 5 mL/g wash buffer (4 M urea, 0.5 M NaCl, 1 mM EDTA, 1 mg/ml sodium deoxycholate, 50 mM Tris-Cl pH 8.0) twice and denatured with solubilization buffer (8 M urea, 50 mM Tris-Cl pH 8.0, 10 mM dithiothreitol) by incubation at 50° C. for 20 min. Supernatant was collected after centrifugation at 21,000×g for 30 minutes and subjected to Ni-NTA affinity purification as described before (Lu and Benning 2009). His-tagged PGD1 protein was eluted with solubilization buffer containing 200 mM imidazole. […] After 1 hour incubation at 4° C., proteins were aliquoted and kept frozen at −80° C. Protein concentration was determined with Bio-Rad Protein Assay Dye Reagent Concentrate (http://www.bio-rad.com) according to the manufacturer's instructions.
as §4, with “TLC. Corresponding bands were isolated and lipids were recovered from silica gel by extraction with chloroform-methanol (1:1 by volume). For each PGD1 reaction, 75 nmol lipid substrates extracted from Chlamydomonas, or E. coli cells expressing the cucumber MGDG synthase were used.” for “TLC.”

Molecule | burst of TBARS in the pgd1 mutant [1] | chlorosis ([2]; FIG. 8A, B) | viability loss ([2]; FIG. 8C) | pgd1 TAG phenotype ([3]; pgd1 mutant, DCMU 2 μM) | TAG levels of the wild-type parental strain ([3]; wild-type parental strain dw15-1, DCMU 2 μM) | generation of lyso-DGTS and lyso-PtdEtn ([4]; iodine staining, compared with Rhizopus lipase, FIGS. 16A and 16B) | Lyso-SQDG hydrolysis ([4]; sugar-specific staining, FIG. 16D) | formation of lyso-DGDG ([5]; DGDG extracted from Chlamydomonas, sugar-specific staining, FIG. 7C) | product formed in competition experiment ([5]; E. coli-derived MGDG and Chlamydomonas-derived DGDG offered in equal amounts) | apparent MGDG concentration up to which hydrolysis was linear in reaction velocity ([6]; E. coli-derived MGDG, 3 hours incubation, FIG. 15B) | time at which lyso-MGDG was detectable ([6]; E. coli-derived MGDG, FIG. 15A) | positional preference of acyl group hydrolysis ([6]; E. coli-derived MGDG, compared with Rhizopus lipase digestion, FIG. 7H, 7I) | activity on E. coli-derived MGDG versus mature MGDG from Chlamydomonas ([6]; intensity of the lyso-MGDG band, FIG. 7B) | lyso-MGDG product generated ([6]; mature MGDG isolated from Chlamydomonas (predominantly 18:3/16:4), TLC, FIG. 7B)
CN(C)C(=O)Nc1ccc(Cl)c(Cl)c1 [DCMU, 3-(3,4-dichlorophenyl)-1,1-dimethylurea] | reverted | suppressed | suppressed | did not rescue | decrease; also recorded: lower levels of TAG |  |  |  |  |  |  |  |  | 
PGD1: recombinant Chlamydomonas galactoglycerolipid lipase (SEQ ID NO:1), His-tagged, purified from E. coli inclusion bodies and refolded (protein, listed as Chlamydomonas reinhardtii, His tag) MSQLLSHFVRVPTFASPDQVLREARDKERELQNARAPTDVSGFLAPVGVWELKHLRKLSSLTSLTYYMHLVTPRRLQLMHGLDLVVTSRACDVRPYEHNRTAEECGADGDGMAVSFAEARQVYAELKRGTGGASGSGSNGAAAAPVAVAAGVSNIVALPRELPFVPLPGGATEGGEAGAEAAAGAAAAAAAAAGEGTGPGAQGQGAGGLQLPLASTEAIGRMLRSPAEVVSAKLAEAALAASAAAAASPLGAAAESFYAGLASLPIPLAGGLVGANNKAANTLLAPPNGAAASSSGGGGGSGGAAAASEVVGSSRGAQGADPADPGAPNTSGKATAASIAAMATAELRSRRLGGTGPAKTGGSGAASSGSSSGGIGAGGMAPVTAGGMRLSPAATAFSAPPAATVSSLASTDAGTALVPVASSSAASLTFSSSSAYSCPSEWFVVDDPASATRIFVIQGSDTLDHWKLNLTFDPVVFEEPALGVKVHRGVYEAALVLYERFLPLVYEHLEASPFSKVTFTGHSIGGSMATLLMLMYRNRGVLPPHSIATVYTFGAPAVFCQQQQPAVADASSACCNGSSSNGSSTPASGSSSPRSGSPGSASASSLPAGSGSGAGGMSLWALGLSGFGMGGASLAGGGSTSAPSSTAGLASVDGGAVAAGGGGSGFNSSGLGFMSVEDPQAVSMPPGAAQAPSPASAPAPTAGPGHNSHSSHSKAGPAAAKSCACGVDGLLTRLGLAPHVVRNVVMARDVVPRAFACDYSLVADILKGWGPAFREHCCLNRHGRKHLYYFVGRMCILQPDAWHSFVGGDPEHPMLPPGPELYALAEPEDAAAARAHYPALSDLPILNAVTSNGHTRGSGGNGANAAVNAAVNASGPSAAASGGGGGSQQPTAAAAVPSTANFGTALVASAAQRERDARGGGSRLQPRSVVEAVWEIMDNPHPLETLADPGAYLASGSISRYHNPEHYTKALGRLTHLKRLAERRQHPHGQAQQKQAQPQAGEGGIRSMFAGRNIRSFGGGVRSGSGSGSAGRRGLLHQQAASNGTAADAVLASGAAGAAAAAWGSAPQLADLVSGNGGRASAGYEGGVWDSSDGLDLHLSDFMGASAVGAADPHACR |  |  |  |  |  | detectable by iodine staining, but at much lower levels | not detectable | no formation of lyso-DGDG was detected | only lyso-MGDG was formed | ≤ 300 µM | 30 min | prefers acyl groups at the sn-1 position | more active | rather faint
